Laboratory results from PMC5206724, “Insensitivity to pain induced by a potent selective closed-state Nav1.7 inhibitor” (Scientific Reports, 2017).

Tests used:
[1] = target: human Nav1.1 (human) (UniProt P35498)
[2] = target: human Nav1.2 (human) (UniProt Q99250)
[3] = target: human Nav1.3 (human) (UniProt Q9NY46)
[4] = target: human Nav1.4 (human) (UniProt P35499)
[5] = target: human Nav1.5 (human) (UniProt Q14524)
[6] = target: human Nav1.6 (human) (UniProt Q9UQD0)

Protoxin-II (β/ω-theraphotoxin-Tp2a), sequence (P83476 whole entry): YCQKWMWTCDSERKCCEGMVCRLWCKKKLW
human Nav1.5 (human), sequence (Q14524 whole entry): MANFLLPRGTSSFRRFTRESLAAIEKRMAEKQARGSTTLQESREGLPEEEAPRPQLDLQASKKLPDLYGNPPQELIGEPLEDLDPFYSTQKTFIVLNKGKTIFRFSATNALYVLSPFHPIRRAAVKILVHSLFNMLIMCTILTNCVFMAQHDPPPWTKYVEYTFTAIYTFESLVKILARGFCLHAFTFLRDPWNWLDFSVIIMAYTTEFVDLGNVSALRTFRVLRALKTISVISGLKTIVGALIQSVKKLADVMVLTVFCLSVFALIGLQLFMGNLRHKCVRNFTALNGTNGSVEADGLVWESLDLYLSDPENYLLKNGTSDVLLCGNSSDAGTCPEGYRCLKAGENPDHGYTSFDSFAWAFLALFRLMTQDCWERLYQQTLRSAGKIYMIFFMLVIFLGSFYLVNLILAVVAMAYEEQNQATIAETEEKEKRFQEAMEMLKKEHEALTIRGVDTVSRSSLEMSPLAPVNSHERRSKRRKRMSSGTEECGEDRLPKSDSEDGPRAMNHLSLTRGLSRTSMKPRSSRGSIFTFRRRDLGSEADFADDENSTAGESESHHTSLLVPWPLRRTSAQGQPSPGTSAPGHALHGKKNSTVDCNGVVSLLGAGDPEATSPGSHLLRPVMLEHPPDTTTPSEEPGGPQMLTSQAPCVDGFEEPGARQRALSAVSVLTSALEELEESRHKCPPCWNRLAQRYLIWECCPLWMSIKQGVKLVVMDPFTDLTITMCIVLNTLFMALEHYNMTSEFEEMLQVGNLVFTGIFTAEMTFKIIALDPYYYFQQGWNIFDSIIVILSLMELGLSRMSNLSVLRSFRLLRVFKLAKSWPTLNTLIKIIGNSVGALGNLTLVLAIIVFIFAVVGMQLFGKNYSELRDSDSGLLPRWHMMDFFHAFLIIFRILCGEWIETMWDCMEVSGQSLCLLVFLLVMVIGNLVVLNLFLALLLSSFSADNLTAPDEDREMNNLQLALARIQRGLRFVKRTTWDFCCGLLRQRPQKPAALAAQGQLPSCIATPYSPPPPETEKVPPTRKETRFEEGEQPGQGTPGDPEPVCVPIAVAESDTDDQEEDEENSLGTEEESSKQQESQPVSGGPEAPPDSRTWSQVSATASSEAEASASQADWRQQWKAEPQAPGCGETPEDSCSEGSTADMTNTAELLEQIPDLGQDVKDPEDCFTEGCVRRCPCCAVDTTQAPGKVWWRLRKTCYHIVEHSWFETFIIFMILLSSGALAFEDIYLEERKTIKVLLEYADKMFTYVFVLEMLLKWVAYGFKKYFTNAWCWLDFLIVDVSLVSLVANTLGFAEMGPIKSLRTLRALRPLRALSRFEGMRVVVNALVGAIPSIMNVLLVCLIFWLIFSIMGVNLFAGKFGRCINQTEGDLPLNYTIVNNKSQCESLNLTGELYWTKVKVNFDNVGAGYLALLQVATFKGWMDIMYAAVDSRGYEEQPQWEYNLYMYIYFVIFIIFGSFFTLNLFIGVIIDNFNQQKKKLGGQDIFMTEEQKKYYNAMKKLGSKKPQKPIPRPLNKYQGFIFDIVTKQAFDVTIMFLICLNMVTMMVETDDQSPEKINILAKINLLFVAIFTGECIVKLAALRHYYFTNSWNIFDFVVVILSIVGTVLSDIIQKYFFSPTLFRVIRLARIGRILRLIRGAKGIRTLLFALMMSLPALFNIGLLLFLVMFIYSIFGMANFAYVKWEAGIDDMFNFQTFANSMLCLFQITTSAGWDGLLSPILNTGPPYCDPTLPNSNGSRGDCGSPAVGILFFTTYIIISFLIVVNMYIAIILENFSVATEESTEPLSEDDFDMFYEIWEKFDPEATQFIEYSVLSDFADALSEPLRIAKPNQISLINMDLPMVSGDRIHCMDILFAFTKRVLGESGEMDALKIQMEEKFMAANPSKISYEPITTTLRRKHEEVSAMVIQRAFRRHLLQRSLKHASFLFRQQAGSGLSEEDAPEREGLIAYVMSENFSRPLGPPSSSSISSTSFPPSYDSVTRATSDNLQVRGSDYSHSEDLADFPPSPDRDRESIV
human Nav1.4 (human), sequence (P35499 whole entry): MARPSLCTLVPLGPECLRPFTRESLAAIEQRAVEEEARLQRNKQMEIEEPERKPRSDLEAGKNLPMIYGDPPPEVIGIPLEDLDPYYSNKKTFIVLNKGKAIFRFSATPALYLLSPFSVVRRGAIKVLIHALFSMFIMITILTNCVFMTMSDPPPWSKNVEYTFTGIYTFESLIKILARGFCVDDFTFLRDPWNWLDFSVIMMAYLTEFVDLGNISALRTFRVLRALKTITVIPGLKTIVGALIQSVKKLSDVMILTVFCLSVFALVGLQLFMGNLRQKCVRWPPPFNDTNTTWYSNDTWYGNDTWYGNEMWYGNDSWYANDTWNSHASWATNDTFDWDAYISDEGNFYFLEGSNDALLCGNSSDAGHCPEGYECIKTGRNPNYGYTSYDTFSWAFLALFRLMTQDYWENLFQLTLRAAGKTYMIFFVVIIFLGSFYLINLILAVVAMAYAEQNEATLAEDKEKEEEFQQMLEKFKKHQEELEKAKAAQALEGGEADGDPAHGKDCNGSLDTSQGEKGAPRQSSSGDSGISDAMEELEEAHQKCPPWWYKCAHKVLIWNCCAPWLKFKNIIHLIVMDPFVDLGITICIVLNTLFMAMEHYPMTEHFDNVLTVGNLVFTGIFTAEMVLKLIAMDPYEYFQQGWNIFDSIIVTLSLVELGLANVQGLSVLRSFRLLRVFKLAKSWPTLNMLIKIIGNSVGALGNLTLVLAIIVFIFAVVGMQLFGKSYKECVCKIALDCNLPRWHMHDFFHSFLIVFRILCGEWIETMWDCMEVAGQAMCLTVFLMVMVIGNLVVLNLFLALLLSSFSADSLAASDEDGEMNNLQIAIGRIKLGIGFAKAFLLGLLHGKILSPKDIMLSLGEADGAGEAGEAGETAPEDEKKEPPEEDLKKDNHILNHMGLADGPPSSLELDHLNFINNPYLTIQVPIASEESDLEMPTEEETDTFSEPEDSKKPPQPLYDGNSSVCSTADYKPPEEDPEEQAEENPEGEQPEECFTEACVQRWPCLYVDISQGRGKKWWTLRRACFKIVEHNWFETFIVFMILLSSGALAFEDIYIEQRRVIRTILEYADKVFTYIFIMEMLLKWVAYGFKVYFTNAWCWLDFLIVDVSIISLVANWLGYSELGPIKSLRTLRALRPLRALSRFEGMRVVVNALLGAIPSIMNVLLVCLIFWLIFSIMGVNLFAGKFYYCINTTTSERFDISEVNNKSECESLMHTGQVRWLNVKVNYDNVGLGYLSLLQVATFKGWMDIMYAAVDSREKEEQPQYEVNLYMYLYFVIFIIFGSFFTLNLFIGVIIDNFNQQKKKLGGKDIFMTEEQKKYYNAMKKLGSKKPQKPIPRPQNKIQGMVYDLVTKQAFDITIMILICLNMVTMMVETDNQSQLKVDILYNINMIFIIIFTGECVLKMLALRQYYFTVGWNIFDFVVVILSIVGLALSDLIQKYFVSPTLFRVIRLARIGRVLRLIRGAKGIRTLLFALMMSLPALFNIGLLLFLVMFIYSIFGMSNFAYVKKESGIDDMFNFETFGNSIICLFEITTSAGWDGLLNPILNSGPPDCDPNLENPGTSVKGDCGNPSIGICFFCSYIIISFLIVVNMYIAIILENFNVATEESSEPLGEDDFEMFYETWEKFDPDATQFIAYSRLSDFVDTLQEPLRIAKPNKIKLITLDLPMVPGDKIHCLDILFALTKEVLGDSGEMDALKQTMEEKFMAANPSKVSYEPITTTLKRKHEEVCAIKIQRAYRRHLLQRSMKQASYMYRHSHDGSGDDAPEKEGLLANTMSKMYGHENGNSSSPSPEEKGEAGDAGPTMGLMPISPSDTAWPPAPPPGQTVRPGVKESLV

Q: “Protoxin-II (β/ω-theraphotoxin-Tp2a) (from UniProt P83476 1-30) (peptide)” was tested. Which pIC50 of inhibition of sodium current, automated patch clamp (QPatch); fitted Emax 100 % [1] did it give?
A: 7.8 -log10(IC50)

Q: And the pIC50 of inhibition of sodium current, automated patch clamp (QPatch); fitted Emax 100 % [2]?
A: 7.1 -log10(IC50)

Q: What about the pIC50 of inhibition of sodium current, automated patch clamp (QPatch); fitted Emax 100 % [3] of the same substance?
A: 7.6 -log10(IC50)

Q: And the pIC50 of inhibition of sodium current, automated patch clamp (QPatch); fitted Emax 100 % [4]?
A: 7.1 -log10(IC50)

Q: And the pIC50 of inhibition of sodium current, automated patch clamp (QPatch); fitted Emax 100 % [5]?
A: 6.4 -log10(IC50)

Q: And the pIC50 of inhibition of sodium current, automated patch clamp (QPatch); fitted Emax 100 % [6]?
A: 7.5 -log10(IC50)
